Columns and labels:
Experiment in all cases: pull-down; 5 pmol P-Rex1 or P-Rex2 protein (2.5 pmol for P-Rex1 mutants) with 5 pmol GST or GST-Grk2 in 20 µl detergent-free buffer (50 mM Hepes pH 7.2, 150 mM NaCl), 1 h on ice; isolated on magnetic glutathione agarose; beads washed in buffer with 1% NP-40; western blot
Settings in all cases: both partners purified
[1] = biological target: T1, GEF-dead His-P-Rex2 (P-Rex2^E30A,N212A) (human, UniProt Q70Z35 1-1606, E30A | N212A)
T1 construct: P-Rex2, human, with alanine mutations at Glu30 and Asn212 in the catalytic DH domain; also called GEF-dead P-Rex2; source: baculovirus-infected Sf9 cells, purified (Ni-NTA agarose, desalting); not shown: His6, N-terminal, kept
T1 sequence (Q70Z35 whole entry E30A/N212A, the tested form may be a part): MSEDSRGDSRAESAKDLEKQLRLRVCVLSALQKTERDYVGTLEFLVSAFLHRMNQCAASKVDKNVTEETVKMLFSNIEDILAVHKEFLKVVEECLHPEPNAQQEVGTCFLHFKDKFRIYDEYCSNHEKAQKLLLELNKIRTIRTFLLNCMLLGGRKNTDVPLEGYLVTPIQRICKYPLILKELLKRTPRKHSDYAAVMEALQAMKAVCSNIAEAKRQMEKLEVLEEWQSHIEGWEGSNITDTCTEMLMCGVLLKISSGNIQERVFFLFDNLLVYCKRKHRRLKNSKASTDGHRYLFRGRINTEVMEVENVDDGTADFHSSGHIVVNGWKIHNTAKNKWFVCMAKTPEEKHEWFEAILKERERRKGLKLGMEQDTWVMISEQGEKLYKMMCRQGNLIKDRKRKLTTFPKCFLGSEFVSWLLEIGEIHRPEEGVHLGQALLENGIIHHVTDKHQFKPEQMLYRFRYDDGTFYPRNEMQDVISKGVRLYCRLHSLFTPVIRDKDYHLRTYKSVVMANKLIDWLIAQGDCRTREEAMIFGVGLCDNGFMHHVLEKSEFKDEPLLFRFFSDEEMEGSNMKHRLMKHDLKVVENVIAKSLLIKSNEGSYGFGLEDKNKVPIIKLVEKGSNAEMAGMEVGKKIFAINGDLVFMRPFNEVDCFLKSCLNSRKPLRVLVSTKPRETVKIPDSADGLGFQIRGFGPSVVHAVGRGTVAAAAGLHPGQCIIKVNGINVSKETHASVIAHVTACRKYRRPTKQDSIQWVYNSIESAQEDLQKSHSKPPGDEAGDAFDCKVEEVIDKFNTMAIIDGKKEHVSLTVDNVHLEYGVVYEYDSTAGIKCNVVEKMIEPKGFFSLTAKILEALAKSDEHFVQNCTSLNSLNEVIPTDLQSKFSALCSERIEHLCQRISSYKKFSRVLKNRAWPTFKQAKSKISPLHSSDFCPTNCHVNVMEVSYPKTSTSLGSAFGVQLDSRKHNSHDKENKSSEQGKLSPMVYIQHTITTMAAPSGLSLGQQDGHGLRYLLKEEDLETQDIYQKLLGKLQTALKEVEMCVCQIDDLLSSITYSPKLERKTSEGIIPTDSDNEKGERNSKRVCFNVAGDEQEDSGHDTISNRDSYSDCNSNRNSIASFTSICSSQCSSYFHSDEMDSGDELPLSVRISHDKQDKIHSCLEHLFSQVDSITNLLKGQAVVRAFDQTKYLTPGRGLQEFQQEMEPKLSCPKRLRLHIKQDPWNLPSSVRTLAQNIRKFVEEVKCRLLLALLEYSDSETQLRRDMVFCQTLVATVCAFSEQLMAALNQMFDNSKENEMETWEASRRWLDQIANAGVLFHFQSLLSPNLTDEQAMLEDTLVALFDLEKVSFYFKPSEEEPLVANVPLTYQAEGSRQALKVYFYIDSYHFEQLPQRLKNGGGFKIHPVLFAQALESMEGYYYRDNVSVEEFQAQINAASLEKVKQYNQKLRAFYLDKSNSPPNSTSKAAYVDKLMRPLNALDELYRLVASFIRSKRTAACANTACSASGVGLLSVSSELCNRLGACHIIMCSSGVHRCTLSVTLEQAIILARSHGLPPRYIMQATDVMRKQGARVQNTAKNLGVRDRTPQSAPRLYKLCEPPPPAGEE

[2] = biological target: T2, GEF-dead EE-P-Rex1 (human, UniProt Q8TCU6 1-1659, E56A | N238A)
T2 construct: P-Rex1, human, with point mutations E56A and N238A in the DH domain; also called GEF-dead P-Rex1; P-Rex1 E56A N238A; source: baculovirus-infected Sf9 cells, purified using the EE tag
T2 sequence (Q8TCU6 whole entry E56A/N238A, the tested form may be a part): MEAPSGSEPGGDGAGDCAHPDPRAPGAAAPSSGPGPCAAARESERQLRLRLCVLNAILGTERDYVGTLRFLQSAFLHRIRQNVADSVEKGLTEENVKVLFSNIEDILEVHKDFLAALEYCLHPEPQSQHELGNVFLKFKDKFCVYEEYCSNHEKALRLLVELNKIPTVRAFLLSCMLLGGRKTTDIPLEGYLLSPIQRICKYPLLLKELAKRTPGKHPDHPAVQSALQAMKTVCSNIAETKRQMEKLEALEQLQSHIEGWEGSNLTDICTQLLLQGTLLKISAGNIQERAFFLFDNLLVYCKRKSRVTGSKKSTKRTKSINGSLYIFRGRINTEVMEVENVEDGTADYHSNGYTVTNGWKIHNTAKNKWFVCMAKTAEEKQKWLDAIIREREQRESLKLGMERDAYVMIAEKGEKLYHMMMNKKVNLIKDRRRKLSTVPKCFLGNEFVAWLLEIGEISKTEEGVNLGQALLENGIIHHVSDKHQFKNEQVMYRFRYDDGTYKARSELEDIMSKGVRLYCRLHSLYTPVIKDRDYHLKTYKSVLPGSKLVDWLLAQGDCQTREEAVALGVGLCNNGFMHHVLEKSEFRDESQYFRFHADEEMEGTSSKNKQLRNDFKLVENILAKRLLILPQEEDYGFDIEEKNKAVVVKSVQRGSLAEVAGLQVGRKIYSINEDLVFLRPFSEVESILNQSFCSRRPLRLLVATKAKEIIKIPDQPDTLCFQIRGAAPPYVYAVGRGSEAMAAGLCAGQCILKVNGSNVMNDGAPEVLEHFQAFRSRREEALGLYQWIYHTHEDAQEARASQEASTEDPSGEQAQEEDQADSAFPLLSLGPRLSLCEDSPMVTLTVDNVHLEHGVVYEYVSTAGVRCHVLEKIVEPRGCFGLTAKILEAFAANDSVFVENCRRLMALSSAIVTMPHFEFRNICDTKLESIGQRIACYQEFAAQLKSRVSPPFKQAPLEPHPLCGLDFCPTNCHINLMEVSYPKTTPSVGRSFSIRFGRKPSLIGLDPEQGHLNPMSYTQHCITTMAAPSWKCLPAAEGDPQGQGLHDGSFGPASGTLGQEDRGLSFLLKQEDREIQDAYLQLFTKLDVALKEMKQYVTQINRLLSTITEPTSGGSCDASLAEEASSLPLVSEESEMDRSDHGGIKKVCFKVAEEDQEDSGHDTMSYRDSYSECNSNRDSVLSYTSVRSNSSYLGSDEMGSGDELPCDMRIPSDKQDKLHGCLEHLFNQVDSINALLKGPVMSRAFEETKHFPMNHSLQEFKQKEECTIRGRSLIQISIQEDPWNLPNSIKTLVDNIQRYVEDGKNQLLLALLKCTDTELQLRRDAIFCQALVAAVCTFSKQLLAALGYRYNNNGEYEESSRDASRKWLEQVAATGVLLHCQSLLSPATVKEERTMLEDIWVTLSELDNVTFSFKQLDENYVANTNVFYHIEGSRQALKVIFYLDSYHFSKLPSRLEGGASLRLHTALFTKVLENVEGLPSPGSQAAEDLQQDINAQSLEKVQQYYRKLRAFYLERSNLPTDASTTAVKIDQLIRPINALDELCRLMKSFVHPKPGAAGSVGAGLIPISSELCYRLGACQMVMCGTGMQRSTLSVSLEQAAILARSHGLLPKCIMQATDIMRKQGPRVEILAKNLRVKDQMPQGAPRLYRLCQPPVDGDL

[3] = biological target: T3, His-P-Rex2 (wild type) (human, UniProt Q70Z35 1-1606)
T3 construct: P-Rex2, human, wild type, subcloned into pENTR3C and recombined with pDEST10; also called wild type His-P-Rex2; source: baculovirus-infected Sf9 cells, purified (Ni-NTA agarose, desalting); not shown: His6, N-terminal, kept
T3 sequence (Q70Z35 whole entry): as the sequence (Q70Z35 whole entry E30A/N212A, the tested form may be a part) above, with A30E, A212N counted along it

[4] = biological target: T4, EE-P-Rex1 (purified recombinant wild type) (human, UniProt Q8TCU6 1-1659)
T4 construct: P-Rex1, human, wild type recombinant protein; also called wild type EE-P-Rex1; source: baculovirus-infected Sf9 cells, purified using the EE tag
T4 sequence (Q8TCU6 whole entry): as the sequence (Q8TCU6 whole entry E56A/N238A, the tested form may be a part) above, with A56E, A238N counted along it

Measured: binding result

B1: GST-Grk2 (enzyme, human, UniProt P25098 1-689, looked up)
chain: MADLEAVLADVSYLMAMEKSKATPAARASKKILLPEPSIRSVMQKYLEDRGEVTFEKIFSQKLGYLLFRDFCLNHLEEARPLVEFYEEIKKYEKLETEEERVARSREIFDSYIMKELLACSHPFSKSATEHVQGHLGKKQVPPDLFQPYIEEICQNLRGDVFQKFIESDKFTRFCQWKNVELNIHLTMNDFSVHRIIGRGGFGEVYGCRKADTGKMYAMKCLDKKRIKMKQGETLALNERIMLSLVSTGDCPFIVCMSYAFHTPDKLSFILDLMNGGDLHYHLSQHGVFSEADMRFYAAEIILGLEHMHNRFVVYRDLKPANILLDEHGHVRISDLGLACDFSKKKPHASVGTHGYMAPEVLQKGVAYDSSADWFSLGCMLFKLLRGHSPFRQHKTKDKHEIDRMTLTMAVELPDSFSPELRSLLEGLLQRDVNRRLGCLGRGAQEVKESPFFRSLDWQMVFLQKYPPPLIPPRGEVNAADAFDIGSFDEEDTKGIKLLDSDQELYRNFPLTISERWQQEVAETVFDTINAETDRLEARKKAKNKQLGHEEDYALGKDCIMHGYMSKMGNPFLTQWQRRYFYLFPNRLEWRGEGEAPQSLLTMEEIQSVEETQIKERKCLLLKIRGGKQFILQCDSDPELVQWKKELRDAYREAQQLVQRVPKMKNKPRSPVVELSKVPLVQRGSANGL
notes: G protein-coupled receptor kinase 2 (Grk2), human, recombinant; also called recombinant human GST-Grk2; source: bought: Abcam (ab125620), Sf9 cell-derived recombinant
binds: [1] | [2] | [3] | [4]
